Source: PMC10324447

Tests used:
VRC01 IgG1 = assay: ITC
[1] = target: VRC01 IgG1 bound to its antigen (not stated | HIV-1, strain BaL); assay: ITC

Substance: human FcγRIIIa-V158, soluble extracellular domain (receptor)
- Kd (VRC01 IgG1): 150 nM
- Kd [1]: 547 nM
